Changes are numbered by the printed parent chain.
T1: canine OX40L, full length membrane form, expressed on the cell surface (HEK293 or MEF cells stably … (canine (dog, beagle)))
T1 construct: The same protein is used on HEK293 and on MEF cells; also called HEK-OX40L; OX40L expressing HEK293 cells
T1 chain: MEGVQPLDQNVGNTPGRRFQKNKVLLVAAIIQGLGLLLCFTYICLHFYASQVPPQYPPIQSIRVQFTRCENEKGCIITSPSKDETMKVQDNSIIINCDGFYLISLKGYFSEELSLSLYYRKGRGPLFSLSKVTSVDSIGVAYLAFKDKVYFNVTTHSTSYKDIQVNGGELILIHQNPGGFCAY

B1: PMX020 formulated in canine IgGB Def2 backbone (antibody)
heavy: EVQLVESGGDLVKPGGSLRISCVASGFTFSSYHMNWVRQAPGKGLQWVAHISSGGTFTSYADAVKGRFTISRDNAKNTLYLQMISLRAEDTAVYYCASGLFLVVGGGNYWGRGTLVTVSSASTTAPSVFPLAPSCGSTSGSTVALACLVSGYFPEPVTVSWNSGSLTSGVHTFPSVLQSSGLYSLSSMVTVPSSRWPSETFTCNVAHPASKTKVDKPVPKRENGRVPRPPDCPKCPAPESLGGPSVFIFPPKPKDTLLIARTPEVTCVVVDLGREDPEVQISWFVDGKQMQTAKTQPREEQFNGTYRVVSVLPIGHQDWLKGKQFTCKVNHIGLPSPIERTISKARGQAHQPSVYVLPPSREELSKNTVSLTCLIKDFFPPDIDVEWQSNGQQEPESKYRTTPPQLDEDGSYFLYSKLSVDKSRWQRGDTFICAVMHEALHNHYTQKSLSHSPGK
light: SYVLTQLPSKNVTLKQPAHITCGGDNIGSKSVHWYQQKLGQAPVLIIYSDSSRPTGIPERFSGANSGNTATLTISGALAEDEADYYCQVWDSSASVFGGGTHLTVL
notes: also called PMX020 Def2; not shown: light chain constant region (human kappa, or canine kappa or lambda)
B2: PMX020 formulated in canine IgGB Def7 backbone (antibody)
heavy: B1 heavy with S240A, L241A, G273D, R274P, H331N, I332K, G333A, P335G
light: B1 light
notes: also called PMX020 Def7; not shown: light chain constant region (human kappa, or canine kappa or lambda)
B3: PMX014 formulated in canine IgGB Def2 backbone (antibody)
heavy: EVQLVESGGDLVKPGGSLRLSCVASGFTFSNFHMSWVRQAPGKGLQWVAYINSGGFNINYEDAVRGRFTISRDNAKNTLYLQMNSLRAEDTAIYYCARDWDTHLDTNWFYYWGQGTLVTVSSASTTAPSVFPLAPSCGSTSGSTVALACLVSGYFPEPVTVSWNSGSLTSGVHTFPSVLQSSGLYSLSSMVTVPSSRWPSETFTCNVAHPASKTKVDKPVPKRENGRVPRPPDCPKCPAPESLGGPSVFIFPPKPKDTLLIARTPEVTCVVVDLGREDPEVQISWFVDGKQMQTAKTQPREEQFNGTYRVVSVLPIGHQDWLKGKQFTCKVNHIGLPSPIERTISKARGQAHQPSVYVLPPSREELSKNTVSLTCLIKDFFPPDIDVEWQSNGQQEPESKYRTTPPQLDEDGSYFLYSKLSVDKSRWQRGDTFICAVMHEALHNHYTQKSLSHSPGK
light: SYVLTQLPSKNVTLKQSAHITCRGDNIGSKSVHWYQQKLGQAPVLIIYYDSSRPTGIPERFSGANSGNTATLTISGALAEDEADYYCQVWDISAKASVFGGGTHLTVL
notes: also called PMX014 Def2; not shown: light chain constant region (human kappa, or canine kappa or lambda)
B4: PMX014 formulated in canine IgGB Def7 backbone (antibody)
heavy: B3 heavy with S242A, L243A, G275D, R276P, H333N, I334K, G335A, P337G
light: B3 light
notes: also called PMX014 Def7; not shown: light chain constant region (human kappa, or canine kappa or lambda)
B5: PMX019 (antibody, V domains shown)
VH: EVQLVESGGDLVKPGGSLRLSCVASGFTFSSNYMSWIRQAPGKGLQWVSQISGDGIYTNYADAMKGRFTISRDNAKNTLYLQMNSLRDEDTALYYCATGIYPNAFGYWGQGTLVTVSS
VL: B1 light with P8S, S49Y, S95N
notes: Canine variable regions; also called PMX19
B6: PMX020 (antibody, V domains shown)
VH: EVQLVESGGDLVKPGGSLRISCVASGFTFSSYHMNWVRQAPGKGLQWVAHISSGGTFTSYADAVKGRFTISRDNAKNTLYLQMISLRAEDTAVYYCASGLFLVVGGGNYWGRGTLVTVSS
VL: B1 light
notes: Canine variable regions
B7: PMX016 (antibody, V domains shown)
VH: EVQLVESGGDLVKPGGSLRLSCVASGFTFSNYHMNWVRQAPGKGLQWVAYITSDGIVSSYADVVKGRFTISRDNAKNTLFLQMNSLRAEDTAVYYCASGLFLVVGGGTFWGQGTLVTVSS
VL: B3 light with S17P, R23G, Y49S, I92S
notes: Canine variable regions
B8: PMX013 (antibody, V domains shown)
VH: ELTLQESGPGLVKPSQTLSLTCVVSGGSVTSSHYWNWIRQRPGRGLEWMGSWTGGTNYNPAFQGRISVTSDTAKNQFSLQLSSLTTEDTAVYYCARGGGYSGTWKDYYVMDYWGHGTSVIVSS
VL: B3 light with K15N, S17P, R23G, I27L, Y49F, S51T, I92S
notes: Canine variable regions
B9: PMX017 (antibody, V domains shown)
V domain 1: EVQLVESGGDLVKPGGSLRLSCVASGFTFSSYHMSWVRQAPGKGLQWVAYIASGGTVTTYADAVRGRFTISRDNAKNMLYLQMNSLRAEDSAVYYCTRWKGGTFGYGMDYWGHGTSLFVSS
V domain 2: B3 light with S17P, R23G, S51N, S52N, T55A, I92S
notes: Canine variable regions
B10: PMX018 (antibody, V domains shown)
VH: B7 VH with S53N, V63A, F80Y, A88V
VL: B3 light with S17P, R23G, Q37H, I92S
notes: Canine variable regions
B11: PMX 024 (antibody, V domains shown)
VH: B5 VH with Q3L, V5M, S35Y, I56S, Y57F, M64V, L93V, Y94F, T98S
VL: B1 light with L7P, S49Y, W90R, S95N
notes: anti-canine OX40L candidate
B12: PMX 015 (antibody, V domains shown)
V domain 1: EVQLVESGGDLVKPGGSLRISCVASGFTFSYYHMSWVRQAPGKGLQWVAYINSGGFSTNYADAVKGRCSISRDNGKNTLYLQMNSLRPEDTGVYYCASESRWGDSYSGMTYWGHGTSLFVSS
V domain 2: B3 light with S17P, R23G, S51N, N65K, I92S
notes: anti-canine OX40L candidate

Molecular target: T1, canine OX40L, full length membrane …
Assay: flow cytometry titration on HEK cells expressing OX40L; Kd (EC50), Prism
Protocol: FIG. 12. Affinity determination for antibodies that bind OX40L formulated in canine IgGB Def2 and Def7 backbones. The experiment was performed using HEK cells expressing OX40L. Graphs are generated by plotting GeoMean arbitrary units (AU) values against Log₁₀ [concentration]. Kd (EC₅₀) was calculated using Prism.
(§1) Specific binding to cells expressing OX40L is confirmed by purifying mAb from the CHO supernatant using protein A resin (MabSelect, Cytiva). In brief, MabSelect resin is washed in PBS and diluted to have a 10% slurry. An appropriate volume of the 10% slurry is added to the supernatant and incubated 5-10′ at RT before being loaded into a filter column. After 3 washes with PBS the antibodies are eluted using IgG elute buffer (Pierce) directly into neutralisation buffer (10 mM TRIS pH8.0), 8:1 IgG elute: neutralisation buffer ratio. Antibody solutions are quantified measuring absorbance at 280 nm, using a Nanodrop One (Thermo Fisher). Serial 1:3 dilutions of purified antibodies ranging from 6.6 μM to 66 pM are prepared in FACS buffer and are used to stain HEK293 or MEF cells (or any other commonly used cell lines) expressing canine OX40L.
Binder B1 has a Kd of 45.4 nM. B2 showed a Kd of 58.1 nM. B3 was tested, and the Kd was 74.6 nM. In the case of B4, the Kd is reported as 74.2 nM.

Molecular target: T1, canine OX40L, full length membrane …
Assay: flow cytometry titration on HEK cells expressing OX40L; Kd (EC50) from GeoMean vs concentration, Prism four parameter fit
Protocol: FIG. 10. Affinity determination for antibodies that bind OX40L on HEK cells expressing OX40L. Graphs are generated by plotting GeoMean arbitrary units (AU) against Log₁₀ [concentration]. Kd (EC₅₀) was calculated using Prism.
as §1
Binder B5 has a Kd of 4.49 nM. Binder B6 has a Kd of 2.8 nM. Binder B7 has a Kd of 37.4 nM. In the case of B8, the Kd is reported as 165 nM. With B9 the Kd was 30 nM. With B10 the Kd was 23.6 nM.

Molecular target: T1, canine OX40L, full length membrane …
Assay: flow cytometry titration on MEF cells expressing OX40L; Kd (EC50) from GeoMean vs concentration, Prism four parameter fit
Protocol: FIG. 11. Affinity determination for antibodies that bind OX40L on MEF cells expressing OX40L. Graphs are generated by plotting GeoMean arbitrary units (AU) against Log₁₀ [concentration]. Kd (EC₅₀) was calculated using Prism.
as §1
Binder B5 has a Kd of 38.3 nM. B6 showed a Kd of 0.71 nM. Work on B7 yielded a Kd of 108 nM. For B8, the Kd was 22.7 nM. With B9 the Kd was 10.7 nM.

Molecular target: T1, canine OX40L, full length membrane …
Assay: flow cytometry, single dose, OX40L expressing HEK293 cells against the parental line, fluorescently labelled secondary antibody
Protocol: CHO cells supernatants containing candidate antibodies are diluted to 1, 5 or 10 μg/ml in FACS buffer (PBS containing 3% FBS) and screened for their ability to bind canine OX40L proteins expressed on cell surface. In brief, HEK293 or MEF cells (or any other commonly used cell lines) expressing canine OX40L at the cell surface are incubated with 100 μl of FACS buffer containing the candidate antibody for 30′ on ice. As a control the parental cell line (HEK293 or MEF cells not expressing OX40L) is also stained with the same antibody solution. After staining, cells are washed with 150 μl FACS buffer followed by centrifugation at 300 g for 3 min. Supernatant is removed, and the cell pellet is resuspended in FACS buffer containing a 1:1000 dilution of a fluorescently labelled secondary antibody recognising the human or canine Fc region of the test antibody for 30 min in the dark, followed by washing with 150 μl FACS buffer and centrifugation at 300 g for 3 mins. Cells are resuspended in FACS buffer and flow cytometry performed using either a […] cytometer, followed by data analysis using FlowJo (FIG. 8).
B11: binds. B12: binds.
